Residue numbers refer to the chain shown, from its start.
What was measured:
[1] = target: T1, Human neutrophil elastase (Homo sapiens, UniProt P08246 P08246:30-267); assay: filter; 3'-truncated; conditions: tags: Athens Research and Technology
Text: (§1) With the use of PCR primers specific for the 3' sequence of the 2'-NH₂ modified RNA ligand, the 3'-fixed regions for four different ligands (class I ligand 12, class II ligand 14, class III ligand 9 and class IV ligand 19) were eliminated.

[2] = target: T1, Human neutrophil elastase; assay: filter; 6 mM KCl, 2 mM MgCl2, pH 7.0; conditions: tags: Athens Research and Technology
Thrombin = Thrombin (UniProt P00734;P00734 P00734:328-363,P00734:364-622); assay: filter; specificity control
[3] = target: T1, Human neutrophil elastase; assay: filter; no KCl in binding buffer; conditions: tags: Athens Research and Technology; G4 predicted
[4] = target: T1, Human neutrophil elastase; assay: filter; better at pH 5, Kd rises about 3-fold over two pH units; ligand 17 legend cites SEQ ID NO:1, sequence taken from Example 7; conditions: tags: Athens Research and Technology; G4 predicted
[5] = target: T1, Human neutrophil elastase; assay: competition; competes with ligand 24; conditions: tags: Athens Research and Technology; G4 predicted
[6] = target: Basic fibroblast growth factor (bFGF) (UniProt P09038 P09038:143-288); assay: filter; specificity control
Sequence of Basic fibroblast growth factor (bFGF) (P09038 143-288, one chain of several): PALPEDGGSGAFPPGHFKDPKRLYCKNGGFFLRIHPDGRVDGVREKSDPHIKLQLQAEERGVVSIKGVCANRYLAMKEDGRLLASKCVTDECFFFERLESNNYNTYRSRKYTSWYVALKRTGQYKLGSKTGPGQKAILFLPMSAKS

[7] = target: T1, Human neutrophil elastase; assay: filter; 3'-truncated; also FIG. 1; conditions: tags: Athens Research and Technology
Text: as §1

T1 sequence (P08246 30-267, one chain of several): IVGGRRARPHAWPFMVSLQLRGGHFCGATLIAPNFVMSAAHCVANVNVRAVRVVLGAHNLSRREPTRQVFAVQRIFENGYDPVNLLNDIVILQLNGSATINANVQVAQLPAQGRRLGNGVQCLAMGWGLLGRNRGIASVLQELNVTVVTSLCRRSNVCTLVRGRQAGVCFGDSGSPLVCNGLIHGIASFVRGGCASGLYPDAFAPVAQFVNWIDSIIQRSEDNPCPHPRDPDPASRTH

B1: ligand 12 3'-truncated (ssRNA)
RNA: GGGAGCUCAGAAUAAACGCUCAAGAGUAGGCUUGACGCCUGGGGGGGUAUGGCUUCGACUGCG
modifications: 2'-NH2 all pyrimidines
Kd [1]: 0.01 µM

B2: ligand 19 (class IV) (ssRNA)
RNA: GGGAGCUCAGAAUAAACGCUCAAUGCCCGGCAGUACUGCACGGCCUCGGGGGGGACCAGGGAGUUCGACAUGAGGCCCGGAUCCGGC
modifications: 2'-NH2 all pyrimidines
Kd [2]: 0.008 µM

B3: ligand 44 (class I) (ssRNA)
RNA: GGGAGCUCAGAAUAAACGCUCAAGAGUAGGCUUGACGCUGGGGGGGUAUGGCUUCGACUUGCGUUCGACAUGAGGCCCGGAUCCGGC
modifications: 2'-NH2 all pyrimidines
Kd [2]: 0.028 µM

B4: ligand 26 (class III) (ssRNA)
RNA: GGGAGCUCAGAAUAAACGCUCAACGCCUUAGUCGCCAUAAUGCUGUCGGGGUGGAUAGGGUGGUUCGACAUGAGGCCCGGAUCCGGC
modifications: 2'-NH2 all pyrimidines
Kd [2]: 0.038 µM

B5: ligand 19 3'-truncated (ssRNA)
RNA: GGGAGCUCAGAAUAAACGCUCAAUGCCCGGCAGUACUGCACGGCCUCGGGGGGGACCAGGGAG
modifications: 2'-NH2 all pyrimidines
Kd [1]: 0.648 µM

B6: ligand 24 (class II) (ssRNA)
RNA: GGGAGCUCAGAAUAAACGCUCAAGGUAGACAUACGCCUUGGGGGGGUAUCAGGGUAUAUGGUAUUCGACAUGAGGCCCGGAUCCGGC
modifications: 2'-NH2 all pyrimidines
Kd (Thrombin): 0.6 µM
Kd ([2]; G4 predicted): 0.011 µM

B7: ligand 14 (class II) (ssRNA)
RNA: B6 RNA with U26C, A48U, U62C
modifications: 2'-NH2 all pyrimidines
Kd [2]: 0.017 µM

B8: ligand 21 (class II; ligand 56 same SEQ ID) (ssRNA)
RNA: B6 RNA with A48G
modifications: 2'-NH2 all pyrimidines
Kd ([2]; G4 predicted): 0.039 µM
Kd [3]: 0.192 µM

B9: ligand 22 (class V) (ssRNA)
RNA: GGGAGCUCAGAAUAAACGCUCAAGGCCCUCUGAACCGUCUGGGCGUGGUUAGUGGGUGGCUUCGACAUGAGGCCCGGAUCCGGC
modifications: 2'-NH2 all pyrimidines
Kd [2]: 0.024 µM

B10: DNA-17 (ssDNA)
DNA: TAGCGATACTGCGTGGGTTGGGGCGGGTAGGGCCAGCAGTCTCGTGCGGTACTTGAGCA
binding result [4]: binds

B11: ligand 30 (class I; ligand 12 same SEQ ID) (ssRNA)
RNA: GGGAGCUCAGAAUAAACGCUCAAGAGUAGGCUUGACGCCUGGGGGGGUAUGGCUUCGACUGCGUUCGACAUGAGGCCCGGAUCCGGC
modifications: 2'-NH2 all pyrimidines
binding result [5]: binds

B12: ligand 28 (class IV) (ssRNA)
RNA: GGGAGCUCAGAAUAAACGCUCAAAUCGGAUAGCGCCGCGAUGGCGUCUGGGGGGGACCAGGGAUUCGACAUGAGGCCCGGAUCCGGC
modifications: 2'-NH2 all pyrimidines
Kd [2]: 0.057 µM

B13: ligand 9 3'-truncated (ssRNA)
RNA: GGGAGCUCAGAAUAAACGCUCAAGGAAUGAAUGUGAUGAACAGGUGUCGGGGUGGAUGGGUGG
modifications: 2'-NH2 all pyrimidines
Kd [1]: 0.989 µM

B14: ligand 46 (class VI) (ssRNA)
RNA: GGGAGCUCAGAAUAAACGCUCAAUGGAUAGCGCUGCGUGACCGCGCUGGGGGGGUUGGCAGGGUUCGACAUGAGGCCCGGAUCCGGC
modifications: 2'-NH2 all pyrimidines
Kd [2]: 0.013 µM

B15: ligand 9 (class III) (ssRNA)
RNA: GGGAGCUCAGAAUAAACGCUCAAGGAAUGAAUGUGAUGAACAGGUGUCGGGGUGGAUGGGUGGUUCGACAUGAGGCCCGGAUCCGGC
modifications: 2'-NH2 all pyrimidines
Kd [6]: 0.5 µM

B16: ligand 3 (class VI) (ssRNA)
RNA: GGGAGCUCAGAAUAAACGCUCAAUGAGGUUGAGUAGUCGUGGUAAUGGCCACGGCUGGGGGGGUCGGUUCGACAUGAGGCCCGGAUCCGGC
modifications: 2'-NH2 all pyrimidines
Kd [2]: 0.028 µM

B17: ligand 4 (class V) (ssRNA)
RNA: GGGAGCUCAGAAUAAACGCUCAACGGAUCGGGCGGUCGUCUAGCGGGAUGGCGUGCGGGUGGAUUCGACAUGAGGCCCGGAUCCGGC
modifications: 2'-NH2 all pyrimidines
Kd [2]: 0.172 µM

B18: ligand 14 3'-truncated (ssRNA)
RNA: GGGAGCUCAGAAUAAACGCUCAAGGCAGACAUACGCCUUGGGGGGGUUUCAGGGUAUAUGGCA
modifications: 2'-NH2 all pyrimidines
Kd [7]: 0.0145 µM

From patent publication US5472841, “Methods for identifying nucleic acid ligands of human neutrophil elastase” (NeXstar Pharmaceuticals, Inc.)
